Laboratory results as given in paper PMC4741384 (2016).

B1: full-length mCherry-lacR-MDC1 [human] / FN-TNKS1 (flag tag and NLS signal, pCDNA 3.1) [human] (parent complex)
chain 1: MEDTQAIDWDVEEEEETEQSSESLRCNVEPVGRLHIFSGAHGPEKDFPLHLGKNVVGRMPDCSVALPFPSISKQHAEIEILAWDKAPILRDCGSLNGTQILRPPKVLSPGVSHRLRDQELILFADLLCQYHRLDVSLPFVSRGPLTVEETPRVQGETQPQRLLLAEDSEEEVDFLSERRMVKKSRTTSSSVIVPESDEEGHSPVLGGLGPPFAFNLNSDTDVEEGQQPATEEASSAARRGATVEAKQSEAEVVTEIQLEKDQPLVKERDNDTKVKRGAGNGVVPAGVILERSQPPGEDSDTDVDDDSRPPGRPAEVHLERAQPFGFIDSDTDAEEERIPATPVVIPMKKRKIFHGVGTRGPGAPGLAHLQESQAGSDTDVEEGKAPQAVPLEKSQASMVINSDTDDEEEVSAALTLAHLKESQPAIWNRDAEEDMPQRVVLLQRSQTTTERDSDTDVEEEELPVENREAVLKDHTKIRALVRAHSEKDQPPFGDSDDSVEADKSSPGIHLERSQASTTVDINTQVEKEVPPGSAIIHIKKHQVSVEGTNQTDVKAVGGPAKLLVVSLEEAWPLHGDCETDAEEGTSLTASVVADVRKSQLPAEGDAGAEWAAAVLKQERAHEVGAQGGPPVAQVEQDLPISRENLTDLVVDTDTLGESTQPQREGAQVPTGREREQHVGGTKDSEDNYGDSEDLDLQATQCFLENQGLEAVQSMEDEPTQAFMLTPPQELGPSHCSFQTTGTLDEPWEVLATQPFCLRESEDSETQPFDTHLEAYGPCLSPPRAIPGDQHPESPVHTEPMGIQGRGRQTVDKVMGIPKETAERVGPERGPLERETEKLLPERQTDVTGEEELTKGKQDREQKQLLARDTQRQESDKNGESASPERDRESLKVEIETSEEIQEKQVQKQTLPSKAFEREVERPVANRECDPAELEEKVPKVILERDTQRGEPEGGSQDQKGQASSPTPEPGVGAGDLPGPTSAPVPSGSQSGGRGSPVSPRRHQKGLLNCKMPPAEKASRIRAAEKVSRGDQESPDACLPPTVPEAPAPPQKPLNSQSQKHLAPPPLLSPLLPSIKPTVRKTRQDGSQEAPEAPLSSELEPFHPKPKIRTRKSSRMTPFPATSAAPEPHPSTSTAQPVTPKPTSQATRSRTNRSSVKTPEPVVPTAPELQPSTSTDQPVTSEPTSQVTRGRKSRSSVKTPETVVPTALELQPSTSTDRPVTSEPTSQATRGRKNRSSVKTPEPVVPTAPELQPSTSTDQPVTSEPTYQATRGRKNRSSVKTPEPVVPTAPELRPSTSTDRPVTPKPTSRTTRSRTNMSSVKTPETVVPTAPELQISTSTDQPVTPKPTSRTTRSRTNMSSVKNPESTVPIAPELPPSTSTEQPVTPEPTSRATRGRKNRSSGKTPETLVPTAPKLEPSTSTDQPVTPEPTSQATRGRTNRSSVKTPETVVPTAPELQPSTSTDQPVTPEPTSQATRGRTDRSSVKTPETVVPTAPELQASASTDQPVTSEPTSRTTRGRKNRSSVKTPETVVPAAPELQPSTSTDQPVTPEPTSRATRGRTNRSSVKTPESIVPIAPELQPSTSRNQLVTPEPTSRATRCRTNRSSVKTPEPVVPTAPEPHPTTSTDQPVTPKLTSRATRRKTNRSSVKTPKPVEPAASDLEPFTPTDQSVTPEAIAQGGQSKTLRSSTVRAMPVPTTPEFQSPVTTDQPISPEPITQPSCIKRQRAAGNPGSLAAPIDHKPCSAPLEPKSQASRNQRWGAVRAAESLTAIPEPASPQLLETPIHASQIQKVEPAGRSRFTPELQPKASQSRKRSLATMDSPPHQKQPQRGEVSQKTVIIKEEEEDTAEKPGKEEDVVTPKPGKRKRDQAEEEPNRIPSRSLRRTKLNQESTAPKVLFTGVVDARGERAVLALGGSLAGSAAEASHLVTDRIRRTVKFLCALGRGIPILSLDWLHQSRKAGFFLPPDEYVVTDPEQEKNFGFSLQDALSRARERRLLEGYEIYVTPGVQPPPPQMGEIISCCGGTYLPSMPRSYKPQRVVITCPQDFPHCSIPLRVGLPLLSPEFLLTGVLKQEAKPEAFVLSPLEMSST
chain 2: MAASRRSQHHHHHHQQQLQPAPGASAPPPPPPPPLSPGLAPGTTPASPTASGLAPFASPRHGLALPEGDGSRDPPDRPRSPDPVDGTSCCSTTSTICTVAAAPVVPAVSTSSAAGVAPNPAGSGSNNSPSSSSSPTSSSSSSPSSPGSSLAESPEAAGVSSTAPLGPGAAGPGTGVPAVSGALRELLEACRNGDVSRVKRLVDAANVNAKDMAGRKSSPLHFAAGFGRKDVVEHLLQMGANVHARDDGGLIPLHNACSFGHAEVVSLLLCQGADPNARDNWNYTPLHEAAIKGKIDVCIVLLQHGADPNIRNTDGKSALDLADPSAKAVLTGEYKKDELLEAARSGNEEKLMALLTPLNVNCHASDGRKSTPLHLAAGYNRVRIVQLLLQHGADVHAKDKGGLVPLHNACSYGHYEVTELLLKHGACVNAMDLWQFTPLHEAASKNRVEVCSLLLSHGADPTLVNCHGKSAVDMAPTPELRERLTYEFKGHSLLQAAREADLAKVKKTLALEIINFKQPQSHETALHCAVASLHPKRKQVTELLLRKGANVNEKNKDFMTPLHVAAERAHNDVMEVLHKHGAKMNALDTLGQTALHRAALAGHLQTCRLLLSYGSDPSIISLQGFTAAQMGNEAVQQILSESTPIRTSDVDYRLLEASKAGDLETVKQLCSSQNVNCRDLEGRHSTPLHFAAGYNRVSVVEYLLHHGADVHAKDKGGLVPLHNACSYGHYEVAELLVRHGASVNVADLWKFTPLHEAAAKGKYEICKLLLKHGADPTKKNRDGNTPLDLVKEGDTDIQDLLRGDAALLDAAKKGCLARVQKLCTPENINCRDTQGRNSTPLHLAAGYNNLEVAEYLLEHGADVNAQDKGGLIPLHNAASYGHVDIAALLIKYNTCVNATDKWAFTPLHEAAQKGRTQLCALLLAHGADPTMKNQEGQTPLDLATADDIRALLIDAMPPEALPTCFKPQATVVSASLISPASTPSCLSAASSIDNLTGPLAELAVGGASNAGDGAAGTERKEGEVAGLDMNISQFLKSLGLEHLRDIFETEQITLDVLADMGHEELKEIGINAYGHRHKLIKGVERLLGGQQGTNPYLTFHCVNQGTILLDLAPEDKEYQSVEEEMQSTIREHRDGGNAGGIFNRYNVIRIQKVVNKKLRERFCHRQKEVSEENHNHHNERMLFHGSPFINAIIHKGFDERHAYIGGMFGAGIYFAENSSKSNQYVYGIGGGTGCPTHKDRSCYICHRQMLFCRVTLGKSFLQFSTMKMAHAPPGHHSVIGRPSVNGLAYAEYVIYRGEQAYPEYLITYQIMKPEAPSQTATAAEQKT

Variants of: B1
Experiment: lacO-array tethering colocalization (immunofluorescence) in U2OS17 cells; N = 100 cells in each experiment, three independent experiments; read off a plot

Going from chain 1 P951A, chain 1 E952A, chain 1 G953A to chain 1 P951A, chain 1 E952A, chain 1 G953A, chain 1 L1996A, chain 1 E1997A, chain 1 G1998A, the screen value falls from about 30% to about 3.7%.

chain 1 L1996A, chain 1 E1997A, chain 1 G1998A gave a screen value of about 27%.
